Measured values reported in US20110059888A1.
*1 amine or outer side, *2 acyl side, *3 side chain or, on linkers, in order; H or OH if unused. [ ]: non-standard residue; d: D form. Ser(Me) = O-methylserine, COC[C@H](N[*:1])C(=O)[*:2]; Arg(Me) = CNC(=N)NCCC[C@H](N)C(=O)O; Ala(cPr) = N[C@@H](CC1CC1)C(=O)O; Hyp = O=C(O)[C@@H]1C[C@@H](O)CN1; 2Pal = N[C@@H](Cc1ccccn1)C(=O)O; 3Pal = N[C@@H](Cc1cccnc1)C(=O)O; 4Pal = N[C@@H](Cc1ccncc1)C(=O)O; Cha = N[C@@H](CC1CCCCC1)C(=O)O

Target: human OT7T175 (metastin receptor) (human) (UniProt Q969F8)
Sequence of UniProt Q969F8 (Q969F8 whole entry L364H): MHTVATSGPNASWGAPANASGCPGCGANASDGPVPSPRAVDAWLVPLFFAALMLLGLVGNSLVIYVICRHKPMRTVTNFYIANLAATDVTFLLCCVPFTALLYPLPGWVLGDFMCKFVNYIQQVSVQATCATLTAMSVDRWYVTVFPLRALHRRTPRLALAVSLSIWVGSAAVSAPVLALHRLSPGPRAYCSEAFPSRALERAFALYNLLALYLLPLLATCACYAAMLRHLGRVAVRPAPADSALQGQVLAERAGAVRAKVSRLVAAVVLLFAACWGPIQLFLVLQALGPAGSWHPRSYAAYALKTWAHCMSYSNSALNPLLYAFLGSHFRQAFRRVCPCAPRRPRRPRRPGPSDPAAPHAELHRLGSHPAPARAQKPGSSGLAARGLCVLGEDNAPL
Test: cell-based or functional assay

Molecule | Specific Activity (EC50 of test compound based on EC50 of Metastin (45-54); intracellular calcium, FLIPR) (ratio to EC50 of Metastin (45-54))
des(1)-Ac-[D-Tyr2,Hyp3,Thr5,Nal(2)6,Arg(Me)9,Trp10]MS10 (peptide) | 1
des(1)-Ac-[D-Tyr2,Hyp3,Thr5,Cha6,Arg(Me)9,Trp10]MS10 (peptide) | 0.3
des(1)-Ac-[D-Tyr2,Hyp3,Thr5,Cha6,Nva8,Arg(Me)9,Trp10]MS10 (peptide) | 0.5
des(1)-Ac-[D-Tyr2,Hyp3,Alb4,Thr5,Cha6,Gly7Ψ((E)CH═CH)Leu8,Trp10]MS10 (peptide) | 0.5
des(1)-Ac-[D-Tyr2,Hyp3,Thr5,Gly7Ψ((E)CH═CH)Leu8,Trp10]MS10 (peptide) | 0.4
des(1)-Ac-[D-Tyr2,Hyp3,Thr5,Cha6,Gly7Ψ(CH2S)Leu8,Arg(Me)9,Trp10]MS10 (peptide) | 1.7
des(1)-Ac-[D-Tyr2,Hyp3,Thr5,Aib7,Arg(Me)9,Trp10]MS10 (peptide) | 1.5
des(1)-Ac-[D-Tyr2,Hyp3,Thr5,Nva8,Arg(Me)9,Trp10]MS10 (peptide) | 0.7
des(1)-Ac-[D-Tyr2,Pro(4F)3,Thr5,Cha6,Ala(cPr)8,Arg(Me)9,Trp10]MS10 (peptide) | 0.4
des(1)-Ac-[D-Tyr2,Hyp3,Thr5,Phe6Ψ(CH2CH2)AzaGly7,Arg(Me)9,Trp10]MS10 (peptide) | 0.6
des(1)-Ac-[D-Tyr2,Glu3,Thr5,Cha6,Ser(Me)8,Arg(Me)9,Trp10]MS10 (peptide) | 0.5
des(1)-Ac-[D-Tyr2,Hyp3,Thr5,Cha6,Gly7Ψ((E)CH═CH)Leu8,Trp10]MS10 (peptide) | 0.6
des(1)-Ac-[D-Tyr2,Hyp3,Thr5,Cha6,Leu(Me)8,Arg(Me)9,Trp10]MS10 (peptide) | 1.4
des(1)-Ac-[D-Tyr2,Hyp3,Thr5,Ser(Me)8,Arg(Me)9,Trp10]MS10 (peptide) | 0.8
des(1)-Ac-[D-Tyr2,Hyp3,Thr5,Cha6,Ser(Me)8,Arg(Me)9,Trp10]MS10 (peptide) | 0.5
des(1)-Ac-[D-Tyr2,Hyp3,Thr5,Gly7Ψ(CH2S)Leu8,Arg(Me)9,Trp10]MS10 (peptide) | 1.2
des(1)-Ac-[D-Tyr2,Glu3,Thr5,Cha6,Nva8,Arg(Me)9,Trp10]MS10 (peptide) | 0.4
des(1)-Ac-[D-Tyr2,Hyp3,Thr5,Cha6,Nle8,Arg(Me)9,Trp10]MS10 (peptide) | 0.6

Molecule | Specific Activity (EC50 of test compound based on EC50 of Metastin (45-54); intracellular calcium, FLIPR) (ratio to EC50 of Metastin (45-54))
des(1)-Ac-[D-Tyr2,Hyp3,Thr5,Cha6,Ala7,Arg(Me)9,Trp10]MS10 (peptide) | 0.5
Ac-[dY][Hyp]NTF[Ser(Me)]L[Arg(Me)]W-NH2 (SMILES CNC(=N)NCCC[C@H](NC(=O)[C@H](CC(C)C)NC(=O)[C@H](COC)NC(=O)[C@H](Cc1ccccc1)NC(=O)[C@@H](NC(=O)[C@H](CC(N)=O)NC(=O)[C@@H]1C[C@@H](O)CN1C(=O)[C@@H](Cc1ccc(O)cc1)NC(C)=O)[C@@H](C)O)C(=O)N[C@@H](Cc1c[nH]c2ccccc12)C(N)=O) [des(1)-Ac-[D-Tyr2,Hyp3,Thr5,Ser(Me)7,Arg(Me)9,Trp10]MS10] | 1.2
Ac-[dY][Hyp]NTFGL[Arg(Me)]W-NH2 (also: Phe5-Gly6 amide bond replaced by CH2O) [des(1)-Ac-[D-Tyr2,Hyp3,Thr5,Phe6Ψ(CH2O)Gly7,Arg(Me)9,Trp10]MS10] | 0.5
Ac-[dY][Hyp]NT[2Pal]GL[Arg(Me)]W-NH2 (SMILES CNC(=N)NCCC[C@H](NC(=O)[C@H](CC(C)C)NC(=O)CNC(=O)[C@H](Cc1ccccn1)NC(=O)[C@@H](NC(=O)[C@H](CC(N)=O)NC(=O)[C@@H]1C[C@@H](O)CN1C(=O)[C@@H](Cc1ccc(O)cc1)NC(C)=O)[C@@H](C)O)C(=O)N[C@@H](Cc1c[nH]c2ccccc12)C(N)=O) [des(1)-Ac-[D-Tyr2,Hyp3,Thr5,Pya(2)6,Arg(Me)9,Trp10]MS10] | 1.2
Ac-[dY][Hyp]NTFVL[Arg(Me)]W-NH2 (SMILES CNC(=N)NCCC[C@H](NC(=O)[C@H](CC(C)C)NC(=O)[C@@H](NC(=O)[C@H](Cc1ccccc1)NC(=O)[C@@H](NC(=O)[C@H](CC(N)=O)NC(=O)[C@@H]1C[C@@H](O)CN1C(=O)[C@@H](Cc1ccc(O)cc1)NC(C)=O)[C@@H](C)O)C(C)C)C(=O)N[C@@H](Cc1c[nH]c2ccccc12)C(N)=O) [des(1)-Ac-[D-Tyr2,Hyp3,Thr5,Val7,Arg(Me)9,Trp10]MS10] | 1.7
Ac-[dY][Hyp]NT[3Pal]GL[Arg(Me)]W-NH2 (SMILES CNC(=N)NCCC[C@H](NC(=O)[C@H](CC(C)C)NC(=O)CNC(=O)[C@H](Cc1cccnc1)NC(=O)[C@@H](NC(=O)[C@H](CC(N)=O)NC(=O)[C@@H]1C[C@@H](O)CN1C(=O)[C@@H](Cc1ccc(O)cc1)NC(C)=O)[C@@H](C)O)C(=O)N[C@@H](Cc1c[nH]c2ccccc12)C(N)=O) [des(1)-Ac-[D-Tyr2,Hyp3,Thr5,Pya(3)6,Arg(Me)9,Trp10]MS10] | 0.9
Ac-[dY][Hyp]NT[4Pal]GL[Arg(Me)]W-NH2 (SMILES CNC(=N)NCCC[C@H](NC(=O)[C@H](CC(C)C)NC(=O)CNC(=O)[C@H](Cc1ccncc1)NC(=O)[C@@H](NC(=O)[C@H](CC(N)=O)NC(=O)[C@@H]1C[C@@H](O)CN1C(=O)[C@@H](Cc1ccc(O)cc1)NC(C)=O)[C@@H](C)O)C(=O)N[C@@H](Cc1c[nH]c2ccccc12)C(N)=O) [des(1)-Ac-[D-Tyr2,Hyp3,Thr5,Pya(4)6,Arg(Me)9,Trp10]MS10] | 0.9
Ac-[dY][Hyp]NTFGL[Arg(Me)]W-NH2 (also: Phe5-Gly6 amide replaced by CH2CH2) [des(1)-Ac-[D-Tyr2,Hyp3,Thr5,Phe6Ψ(CH2CH2)Gly7,Arg(Me)9,Trp10]MS10] | 1.3
Ac-[dY][Hyp]NTFGL[Arg(Me)]W-NH2 (also: Phe5-Gly6 amide bond replaced by COCH2) [des(1)-Ac-[D-Tyr2,Hyp3,Thr5,Phe6Ψ(COCH2)Gly7,Arg(Me)9,Trp10]MS10] | 1.1
Ac-[dY]ENTFGL[Arg(Me)]W-NH2 (SMILES CNC(=N)NCCC[C@H](NC(=O)[C@H](CC(C)C)NC(=O)CNC(=O)[C@H](Cc1ccccc1)NC(=O)[C@@H](NC(=O)[C@H](CC(N)=O)NC(=O)[C@H](CCC(=O)O)NC(=O)[C@@H](Cc1ccc(O)cc1)NC(C)=O)[C@@H](C)O)C(=O)N[C@@H](Cc1c[nH]c2ccccc12)C(N)=O) [des(1)-Ac-[D-Tyr2,Glu3,Thr5,Arg(Me)9,Trp10]MS10] | 0.5
Ac-[dY]ENT[Cha]GL[Arg(Me)]W-NH2 (SMILES CNC(=N)NCCC[C@H](NC(=O)[C@H](CC(C)C)NC(=O)CNC(=O)[C@H](CC1CCCCC1)NC(=O)[C@@H](NC(=O)[C@H](CC(N)=O)NC(=O)[C@H](CCC(=O)O)NC(=O)[C@@H](Cc1ccc(O)cc1)NC(C)=O)[C@@H](C)O)C(=O)N[C@@H](Cc1c[nH]c2ccccc12)C(N)=O) [des(1)-Ac-[D-Tyr2,Glu3,Thr5,Cha6,Arg(Me)9,Trp10]MS10] | 0.6
Ac-[dY][Hyp]NTFGL[Arg(Me)]W-NH2 [des(1)-Ac-[D-Tyr2,Hyp3,Thr5,Arg(Me)9,Trp10]MS10] | 1.2
Ac-[dY][Hyp]NTFGL[Arg(Me)]W-NH2 (also: Gly6-Leu7 amide replaced by CH2NH) [des(1)-Ac-[D-Tyr2,Hyp3,Thr5,Gly7Ψ(CH2NH)Leu8,Arg(Me)9,Trp10]MS10] | 2.9
Ac-[dY][Hyp]NT[Ala(cPr)]GL[Arg(Me)]W-NH2 [des(1)-Ac-[D-Tyr2,Hyp3,Thr5,Ala(cPr)6,Arg(Me)9,Trp10]MS10] | 1.9
Ac-[dY][Hyp]NTFGL[Arg(Me)]W-NH2 (also: Phe5-Gly6 amide replaced by (S)CHOH-CH2) [des(1)-Ac-[D-Tyr2,Hyp3,Thr5,Phe6Ψ((S)CHOH-CH2)Gly7,Arg(Me)9,Trp10]MS10] | 1.2
Ac-[dY][Hyp]NTFGL[Arg(Me)]W-NH2 (also: Phe5-Gly6 amide replaced by (S)CHOH-(E)CH=) [des(1)-Ac-[D-Tyr2,Hyp3,Thr5,Phe6Ψ((S)CHOH-(E)CH=)Gly7,Arg(Me)9,Trp10]MS10] | 1.7
Ac-[dY][Hyp]NTFGL[Arg(Me)]W-NH2 (also: Phe5-Gly6 amide replaced by (E)CH=CH) [des(1)-Ac-[D-Tyr2,Hyp3,Thr5,Phe6Ψ((E)CH═CH)Gly7,Arg(Me)9,Trp10]MS10] | 0.7
Ac-[dY][Hyp]NTFGL[Arg(Me)]W-NH2 (also: Phe5-Gly6 amide replaced by (R)CHOH-(E)CH=) [des(1)-Ac-[D-Tyr2,Hyp3,Thr5,Phe6Ψ((R)CHOH-(E)CH=)Gly7,Arg(Me)9,Trp10]MS10] | 1.4
